Article PMC11808413 (FEBS letters, 2024)
Substitutions are numbered along the chain they refer to. No end group written: not given here.

B1: MBP-tagged lumenal segment of Arabidopsis thaliana STN7 (AA 46-89), C65S (domain or fragment, UniProt Q9S713 46-89, looked up)
chain: AQLIDTVHNLFIGVGVGLPSTVMECGDMIYRSTLPKSNGLTITA
modifications: also: MBP-tagged
B2: MBP-tagged lumenal segment of Arabidopsis thaliana STN7 (AA 46-89), C70S (domain or fragment, UniProt Q9S713 46-89, looked up)
chain: B1 chain with S20C, C25S
modifications: also: MBP-tagged
B3: MBP-tagged lumenal segment of Arabidopsis thaliana LTO1 (AA 251-376) (domain or fragment, UniProt Q8L540 251-376, looked up)
chain: SRSGDIELPYFRTEISSSSSPYAIALAKHLNSIGAKMYGAFWCSHCLEQKEMFGREAAKELNYVECFPDGYKKGTKILKACADAAIEGFPTWIINDKVLSGEIELAELAEMTGFSLDQANETNQLQ

Experiments:
[1] = biological target: the molecule itself; experiment: non-reducing SDS-urea-PAGE (disulfide-linked oligomers); 5 uM desalted MBP-tagged lumenal segment, air-oxidized or with 2 mM diamide or H2O2 for 30 minutes at room temperature, non-reducing 8 % SDS-urea-PAGE; oxidants raise the share of dimers, and higher order oligomers appear for the wild type
[2] = biological target: the molecule itself; experiment: non-reducing gel (disulfide-linked oligomers); air-oxidized MBP-tagged LTO1 alone (Fig. 3, lane 2)

Protein | binding result [1] | binding result [2]
B1 | binds | 
B2 | binds | 
B3 |  | binds
